Tested on: peptide library, one residue held at a place counted from the S/T acceptor
Assay: relative phosphorylation of the sub-library (ratio to the mean residue at this position); higher = residue favoured
Settings: human
Method in brief: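 Human or orthologue kinase constructs, purified and recombinant, were incubated under kinase-specific conditions in 384-well plates with biotinylated degenerate peptide sub-libraries. Each sub-library fixed one residue at one position around a central Ser/Thr. Incubations lasted 90 min with peptides at 50 μM and 50 μM ATP spiked with γ-32P-ATP, after which spots on streptavidin membranes were phosphorimaged and quantified by densitometry. Relative sub-library phosphorylation is a ratio to the mean residue at that position.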

MAP3K20, construct: Full length (from UniProt Q9NYL2)
relative phosphorylation
Settings	at +1	at +2	at +3	at +4	at -1	at -2	at -3	at -4	at -5
A fixed	0.455	0.721	0.832	0.953	0.78	0.903	1.01	0.913	1.12
D fixed	0.247	0.439	0.477	0.582	1.46	1.01	0.926	1.29	1
E fixed	0.359	0.359	0.543	0.629	0.797	0.946	1.13	1.14	0.884
F fixed	1.58	0.694	1.11	0.722	0.853	1.03	0.835	0.894	0.925
G fixed	0.282	0.564	0.99	1.06	1.22	1.45	1.18	1.16	1.09
H fixed	1.07	2.45	1.13	1.14	1.79	1.61	1.2	1.13	1.1
I fixed	2.51	0.692	1.08	0.729	0.394	0.631	0.772	0.72	0.733
K fixed	0.486	1.57	1.45	2.05	1.01	0.509	0.819	1.08	1.39
L fixed	1.3	0.646	1.07	0.672	0.679	0.858	0.952	0.736	0.812
M fixed	0.981	0.758	0.972	0.818	1.13	0.812	0.915	0.849	0.822
N fixed	0.473	0.996	0.822	0.946	1.63	1.12	1.28	1.19	1.11
P fixed	0.261	0.41	0.771	1.16	0.632	0.693	1.23	1.07	1.03
Q fixed	0.629	0.894	0.896	1.04	1.08	0.977	0.892	0.932	0.914
R fixed	0.557	2.15	1.42	1.72	1.12	0.662	1.01	1.11	1.14
V fixed	2.5	0.779	0.984	0.69	0.461	0.647	0.841	0.76	0.772
W fixed	1.27	1.08	1.25	1.19	0.778	2.07	1.11	1.07	1.14
Y fixed	2.03	1.8	1.21	0.895	1.18	1.07	0.909	0.959	1.01
pThr fixed	0.837	0.564	0.781	0.663	0.615	1.09	1.34	1.2	1.22
pTyr fixed	0.662	0.528	0.72	0.694	0.997	0.935	1.06	0.797	1.04
